# Assay: yeast display, Sf9 membrane polyspecificity reagent, FACS + sequencing; frameworks hold sequencing errors
# Outline: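 Sorting gates, low and high (top ~1%), were placed on anti-HA fluorescence to track expression and on streptavidin fluorescence to track reagent binding. A clone's polyreactivity label is taken from the gate it came out of. The reagent was 10% biotinylated, detergent-solubilized Sf9 membrane, applied for 1 hour at 4 °C to galactose-induced yeast display cells.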
row,Sequence,polyreactivity (PSR sort gate)
1,QVQLVESGGGLVQAGGSLRLSCAASGSIFVGYAMGWYRQAPGKERELVAAISKSGGSTYYADSVKGRFTISRDNAKNTDYLQMNSLKPEDTAVYYCATRTHRRGNYLSITHEYWGQGTQVTVSS,high polyreactivity
2,QVQLVESGGGLVQAGGSLRLSCAASGRIFRGYAMGWYRQAPGKERELVAGISSGDNTYYADSVKGRFTISRDNAKNTVYLQMNSLKPEDTAVYYCNADHVYAVDYDYWGQGTQVTVSS,low polyreactivity
3,QVQLVESGGGLVQAGGSLRLICAASGRTFYSKTMGWSRQAPGKEREFVAAIPSIVGSTYYADSVKGRFTISRDNAKITVYFKMNSLKPEDTAVYYCAVTDYYSYQLRYDSSGQGTQVTVSS,low polyreactivity
4,QVQLVESGGGLVQAGGSLRLSCAASGITFYYYDMGWYRLAPGKERELVAAISWSGGRTYYADSVKGRFTISRDNEKNTVYLQMNSLKPEDTAVYYCASGYYVYHFVSLYGGDYWGQGTQVTVSS,high polyreactivity
5,QVQLVESGGGLVQAGGSLRLSCAASGSIFYGYAMGWYRQSPGKERELVAAISSTGVRSYYADSVKGRFTISRDNAKNTVYLQMNSLKPEDSEVYYCAARRYGPGRYQEDYWGQGSQVTVSS,high polyreactivity
6,QVQLQESGGGLVQAGGILRLSCAASGPISRRSTMGWYRQAPGKERELVTAITRGTNTNYADSVKGRFTISRDNAKNTEYLQMNSLKPEDTAVYYCAAYGVLKPYRGDAVFHRYWGQGTQVTVSS,low polyreactivity
7,QVQLVESGGGLVQAGGSLRLSCAASGSIFRSNAMGWYRQAPGKERELVAAITQSGDTTNYADSVKGRFTISRDNAKNTVYLQMNSLKPEDTAVYYCNADTDRYWPYEYDYWGQGTQVTVSS,low polyreactivity
8,QVQLVESGGCLVQEGGSLRLSCPASGSIFDDYAMGWYRQAPGKERELVAAISDSCGSTYYADSVKGRFTISRDNAKNTVYLQMNSLNQEDTAVYYCNADRDDDYDYWGEGTQVTVSS,low polyreactivity
9,QVQLVESGGGLVQAGGSFRLSCAASGSIFDGYAMGWYRQAPGKERELVAAISSGGDSTYYADSVKGRFTISRDNAKNTVYLQMNSLKPEDTAVYYCNADSLVGHSYDYWGQGTQVTVSS,low polyreactivity
10,QVQLVESGGGLVQAGGSLRLSCAASGSIFGFYAMGWDRQAPGKERELVAAIRWRDGRTYYADSVKGRFTISRDNAKNTVYLQMNSLKPEDTAVYYCAAGTPWAYDYWGQGTQVTVSS,high polyreactivity
11,QVQLVESGGGLVQAGGSLRLSCAASGITIVLYAMGWYRQAPGQERQLVAAINIDGNTNYADSVKGRFTISRDNAKNTVYLQMNSLKPEDTAVYYCAATFVPAQSRYTGSKYDYWGQGTQVTVSS,low polyreactivity
12,QVQLVESGGGIVQAGGSLRLSCAASGGTFYYYAMGWYRQAPGKERELVATISYSGASTYYADSVKGRFTISRDNAKNTVYLQMNSLKPEDTAVYYCKARPYNHRYRAWMDYWGQGTQVTVSS,high polyreactivity
13,QVQLVESGGGLVQAGGSLRLICAASGRTYDKYVMGWYRQAPGKERELVSAISFRGVRTYYADSVKGRFTISRDNAKNTFYLQKNSLKPEDTGVYYCAARFTFSAIIGPYGYWGQGTQVTVSS,high polyreactivity
14,QVQLVESVGGLVQAGGSLRLSCAASGTFKWYAMGWYRQAPGKERELVAVISSSGGTTYYADSVKGRFTISRDNAKNTVYLQMNSLKPEDTAVYYCNKRFRSWTTGSPYDYWGQGTQVTVSS,high polyreactivity
15,QVQLVESGGGLVQAGGSLRLSCAACGFIFYKNAMGWYRQAPGKERELFAAISGGGGSTSYADSVKGRFTISRDNAKNTVYLQMNSLKPEDTAVYYCATYSFRRTGWRYDYWGQGTQVTVSS,high polyreactivity
16,QVQLVESGAGLGQAGVSLRLSCAASGSTFPTYAMGWYRPAPGKERELVAAIDWSDGTTYYADSVKGRFTISRDNANNTVYLQMNSLKPDETAGYYCAASLSLSEYDYWGQATQVTVSS,low polyreactivity
17,QVQLVESGGGLVQAGGSLRLSCAASGITFSGNAMGWYRQAPGKERELVATISQSGGSTYYADSVKGRFTISRDNAKNTVYLQMNSLKPEDTAVYYCNVNLQGRYSDKYDYWGQGTQVTVSS,high polyreactivity
18,QVQLVESGGGLVQAGGSLRLSCAASGRIFTWNARGWYRQAPGKERELVARISSGTRTNYADSVKGRFTISRDNAKNTVYLQMYSLKPEDTAVYYCAAAAKRTDAYHNRRYYWGQGTQVTVSS,high polyreactivity
19,QVQLVESGGGLVQAGGSLRLSCAASGSTLAGYAMGWYRQAPGKERELVATISWSDGSTSYADSVKGRFTFSRDNAKNTVYLQLNSLKPEDTAVSYCAADAITNYDGRKSRRSYSAYDYWGQGTQVTVSS,low polyreactivity
20,QVKLVESGGGLVQAGGSLSLSCDASGFISVQNALGCYRQAPGKERELVASITSDGSTYYADSVKGRFTISRDNAKNTVYLQMTSLKPEDTAVYDCAKVNNSYSGFTTTLEYWGQGTQVTVSS,low polyreactivity

row,Sequence,polyreactivity (PSR sort gate)
1,QVQLVESGGGLVQAGGSLRLSCAASGIIFDEYAMGWYRQAPGKERELVAAITWSGGSTYYADSVKGRFTISRDNAKNTVYLQMNSLKPEDTAVYYCNAVQSDEIAYGDTRLDYWGQGTQVTVSS,low polyreactivity
2,QVQLVESGGGLVQAGGSLRLTCAASGSTFRYYVMGWYRQAPGKERELVAGISYRGGTTYYADSVKGRFTISRDNAKNTVYLQMNSLKPEDTAVYYCNAETAAAQASYDRLYVLLDYWGQGTQVTVSS,low polyreactivity
3,QVQLVESGGGLVQAGGSLRLSCAASGNTFAYNVMGWYRQAPGKERELVAAISRSGGSTYYADSVKGRFTISRDNAKNTVYLQMNSLKPEDTAVYYCAAVVRRVRPEGSYNRWGHDYWGQGTQVTVSS,high polyreactivity
4,QVQLVESGGGLVQAGGSLRISCAASGSTFSYYAMGWYRQAPGKERELVAAISSRGGSTYYADSVKGRFTISRDNAKNTVYLQMNSLKPEDTAVYYCAAVRNRHGYDYWGQGTQVTVSS,high polyreactivity
5,QVLLVESGGGLVQAGGSLRLSCAASGSIFIANAKGWYRQAPGKERELGAAIDSGGSTNYADSVKGRFTISRDNAKYTVYLQMNSLKPEDTAVYYCAADGTLTAPGGDYWGQGTQVTVSS,high polyreactivity
6,QDQLVESGGGLVQAGGSLRLSCAASGIILDHYSMGWYRQAPGKERELVAAISSGTRTNYADSVKGRFTISRDNAKHTVSLQMNSLKPEDTAVYYCAATIYRRYRSKYSITSYWGQGTQVTVSS,high polyreactivity
7,QVQLVESGGGLVLAGGSLRLSCAASGRTFKENAKGWYRQAPGKARELVAVINSGGRTYYAVSVKGSFTISRDNAKNTVYLQMNSLKPEDSAVYYCAAYSRSKESGYWGQGTQVTVSS,high polyreactivity
8,QVQLVESGGGLVQAGGSLRLSCAASGSIFYPYAMGWYRQAPGKERELVAAISRSGGSTRYADSVKGRFTISRDNAKNTVYLQMNSLKPEDTAVYYCAVRVFYGVGLIGYYYWGQGTQVTVSS,high polyreactivity
9,QVQLVESGGGLFQAGGSLRISCAASGFIFSFYAMGWYRQAPGKERELVAAITSSGATTYYADSVKGSFTISRDNAKNTVYLQMNSLKPEDTAVYYCNAVYRRDTGYYRYYYWGQGTQVTVSS,high polyreactivity
10,QVQLVESGGGLVQAGGSLRLSCAASGSIFTSYAMVWYRQAPGKERELVAAITSGGSTYYAHSVKGRFTISRDNAKKTVYLLMNSLKPEDTAVYYCAALQVRTSKLHMGYWGQGTQVTVSS,low polyreactivity
11,QVQLLESGGGLDKAGVRIRLSCASSGIIFAWYAMVWYRQAHRKEMELVAAISWSCGSTYYAYSVKLRFTISRDNAKNTVDLQMNSLTPEDTAVYYCATYPRRQGKYAYWGQGTQVTVSS,high polyreactivity
12,QVQLVESGGGLVQAGGSLRLSCAASGLIFVHYAMGWYRQAPGKEREFVAAITWSGGSKYYADSVKGRFTISRDNAKNTVYLQMNSLKPEDTAVYYCAVDGFRPGTASFGYWGQGTQVTVSS,low polyreactivity
13,QVQLVESGGGLVQAGGSLRLSCAASGRIFWYYGMGWYRQAPGKERELVASIRSGGSTNYADSVKGRFTISRDNAKNSVYLQMNSLKPEDTAVYYCAARPDYRYHYWGQGTQVTVSS,high polyreactivity
14,QVQLVESGGGLVQAGGSLRLSCAASGSTFEVYTMGWYRQAAGKERELVADITWSGGNTYYADSVKGRFTISRDNAKNTVYLQMNSLKPEDTAVYYCAADYYHKTVYWYDYWGQGTQVTVSS,low polyreactivity
15,QVQLVESGGGLVQAGGSLRLSCAASGRTFRYYAMGWYRQAPGKERELVASITSGGRTYYADSVKGRFTISRDNAKNTVYLQMNSLKPEDTAVYYCAASTRYEGNYWGQGTQVTVSS,high polyreactivity
16,QVQLQESGGGLVQAGGCLRLSCAASGSIFTYAVMGWYRQAHGKEHELVATIDTGSSTYYADSVKGRITISRDNAKNTLYLQMNSLIPEDTAVYYCAVNTYCRVRYRYWGQGTQVTVSS,high polyreactivity
17,QVQLVESGGGLVQAGGSLRLSCAASGSTFVIYDMGWYRQAPGKERELVAAISYSGGSTYYADSVKGRFTISRDNAKNTVYLQMNSLKPEDTAVYYCAAEGRSDWGGDDYYWGQGTQVTVSS,low polyreactivity
18,QVQLVESGGGLVQAGGSLRLSCAASGRIFQGYVMGWYRQAPGKERELVAAITTGGSTYYADSVKGRFTISRDNAKNTVYLQMNSLKPEDTAVYYCYAVVYVSGYNPYIFGYWGQGTQVTVSS,low polyreactivity
19,QVHLGETGGGLVQAGGSLRLSCAASGSIFSSYAMGWYRQAPGKETELVATITRGGRTSYADSVKGRFTISRDNAKNTVYLQMNSLKPEDTAVDYCAADLYDNVGEFNYWGEGTQVTVSS,low polyreactivity
20,QVQLVESGGGLVQAGGSLRLSCAASGSIFGRYAMGWYRQAPGKERELVASISRRCGSTYYADSVKGRFTISRDNAKNTVYLQMNRLKPEDTAVYDCNVAPWSASSANLEDYWGQGNQVTVSS,high polyreactivity

# From the nanobody polyreactivity screen of Harvey et al. (2022)
